# Assay results reported in paper PMC9234029, “Voltammetric lipase activity assay based on dilinolein and a modified carbon paste electrode” (Analytical and Bioanalytical Chemistry, 2022).
# B1: porcine pancreas lipase (PP-L) (Sus scrofa) (protein)
# chain: SEVCFPRLGCFSDDAPWAGIVQRPLKILPWSPKDVDTRFLLYTNQNQNNYQELVADPSTITNSNFRMDRKTRFIIHGFIDKGEEDWLSNICKNLFKVESVNCICVDWKGGSRTGYTQASQNIRIVGAEVAYFVEVLKSSLGYSPSNVHVIGHSLGSHAAGEAGRRTNGTIERITGLDPAEPCFQGTPELVRLDPSDAKFVDVIHTDAAPIIPNLGFGMSQTVGHLDFFPNGGKQMPGCQKNILSQIVDIDGIWEGTRDFVACNHLRSYKYYADSILNPDGFAGFPCDSYNVFTANKCFPCPSEGCPQMGHYADRFPGKTNGVSQVFYLNTGDASNFARWRYKVSVTLSGKKVTGHILVSLFGNEGNSRQYEIYKGTLQPDNTHSDEFDSDVEVGDLQKVKFIWYNNNVINPTLPRVGASKITVERNDGKVYDFCSQETVREEVLLTLNPC
# Substrate: CCCCC/C=C\C/C=C\CCCCCCCC(=O)OCC(O)COC(=O)CCCCCCC/C=C\C/C=C\CCCCC
# Assay: differential pulse voltammetry of released linoleic acid, CoPC/MWCNT carbon paste electrode
# Assay type: biochemical, Sus scrofa
# Details: sodium borate 0.1 M pH 9, room temperature, 25 min, Lineweaver-Burk plot, substrate in paraffin oil
protein,measurement,value
B1,Km,290 µM
